In the supplement of paper PMC9112550, “Optimization of the antimicrobial peptide Bac7 by deep mutational scanning” (BMC Biology, 2022):

Test system: Escherichia coli TOP10
Assay: shrunken log2 fold change of peptide-encoding DNA abundance (4.5 h post-induction vs induction); higher = less antimicrobial activity (less host growth inhibition)
Settings: time post-induction: 4.5 h; library: site-saturation at positions 5, 18, 19, 20
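Further: peptides expressed intracellularly from a pBAD plasmid library in pooled LB shake-flask culture, induced with 0.3% L-arabinose, DNA abundance read by NGS, three biological replicates, DESeq2 with apeglm shrinkage.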

Sequence	shrunken log2 fold change
RRIRGRPPRLPRPRPRPRRYPRP	0.0823
RRIRRRPPRLPRPRPRPWETPRP	0.00928
RRIRVRPPRLPRPRPRPWFGPRP	0.0293
RRIRDRPPRLPRPRPRPYAYPRP	0.0345
RRIRKRPPRLPRPRPRPCASPRP	0.0419
RRIRVRPPRLPRPRPRPDKQPRP	-0.284
RRIRKRPPRLPRPRPRPDNDPRP	-0.00188
RRIRERPPRLPRPRPRPFTLPRP	-0.21
RRIRLRPPRLPRPRPRPAYCPRP	-0.088
RRIRRRPPRLPRPRPRPLWVPRP	0.382
RRIRARPPRLPRPRPRPDLWPRP	1.51
RRIRRRPPRLPRPRPRPFTKPRP	-0.221
RRIRSRPPRLPRPRPRPMSHPRP	-0.109
RRIRARPPRLPRPRPRPQCLPRP	0.23
RRIRLRPPRLPRPRPRPFPGPRP	0.143
RRIRERPPRLPRPRPRPLNIPRP	-0.662
RRIRNRPPRLPRPRPRPPTHPRP	0.0725
RRIRPRPPRLPRPRPRPQAWPRP	0.179
RRIRMRPPRLPRPRPRPFRRPRP	-0.117
RRIRPRPPRLPRPRPRPCIQPRP	-0.209
RRIRNRPPRLPRPRPRPEMSPRP	-0.0389
RRIRPRPPRLPRPRPRPTEVPRP	-0.342
RRIRFRPPRLPRPRPRPEGYPRP	0.0525

Sequence	shrunken log2 fold change
RRIRTRPPRLPRPRPRPMQQPRP	0.065
RRIRSRPPRLPRPRPRPTRPPRP	0.645
RRIRARPPRLPRPRPRPANTPRP	0.0584
RRIRDRPPRLPRPRPRPRHVPRP	0.153
RRIRDRPPRLPRPRPRPIWWPRP	0.498
RRIRSRPPRLPRPRPRPYMEPRP	2.73
RRIRIRPPRLPRPRPRPWMMPRP	-0.178
RRIRVRPPRLPRPRPRPSQYPRP	-0.389
RRIRWRPPRLPRPRPRPWPFPRP	0.481
RRIRWRPPRLPRPRPRPHADPRP	0.708
RRIRGRPPRLPRPRPRPKFYPRP	-0.278
RRIRARPPRLPRPRPRPCILPRP	-1.06
RRIRPRPPRLPRPRPRPVRGPRP	0.898
RRIRWRPPRLPRPRPRPASCPRP	0.241
RRIRRRPPRLPRPRPRPAGAPRP	0.497
RRIRMRPPRLPRPRPRPSQMPRP	0.344
RRIRCRPPRLPRPRPRPYTNPRP	-1.19
RRIRNRPPRLPRPRPRPTMDPRP	-0.266
RRIRNRPPRLPRPRPRPGDLPRP	0.107
RRIRERPPRLPRPRPRPQNDPRP	-0.551
RRIRMRPPRLPRPRPRPMVSPRP	0.0423
RRIRFRPPRLPRPRPRPQCSPRP	0.0505
RRIRARPPRLPRPRPRPDNLPRP	-0.0846
